Experimental data taken from US20240115721A1 (Memorial Sloan Kettering, published 2024).

T1: endogenous human DLL3 on NCI-H82 cells (human, UniProt Q9NYJ7 27-618)
T1 sequence (looked up): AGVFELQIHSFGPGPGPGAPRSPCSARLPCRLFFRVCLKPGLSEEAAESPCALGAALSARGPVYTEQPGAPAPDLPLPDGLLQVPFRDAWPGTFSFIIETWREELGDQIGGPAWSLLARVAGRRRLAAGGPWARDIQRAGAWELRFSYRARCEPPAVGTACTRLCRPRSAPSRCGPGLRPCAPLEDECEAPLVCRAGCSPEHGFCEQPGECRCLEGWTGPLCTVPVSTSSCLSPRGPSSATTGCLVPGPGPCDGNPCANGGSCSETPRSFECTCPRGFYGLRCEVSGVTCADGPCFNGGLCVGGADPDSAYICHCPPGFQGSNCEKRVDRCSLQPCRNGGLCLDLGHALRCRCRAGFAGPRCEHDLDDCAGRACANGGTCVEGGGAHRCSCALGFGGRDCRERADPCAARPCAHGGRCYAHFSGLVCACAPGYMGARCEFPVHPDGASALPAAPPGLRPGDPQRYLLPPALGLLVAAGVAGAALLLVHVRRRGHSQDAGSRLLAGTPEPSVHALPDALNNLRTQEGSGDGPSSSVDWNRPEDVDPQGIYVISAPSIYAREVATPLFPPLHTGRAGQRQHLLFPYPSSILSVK

T2: full-length mouse DLL3 on transfected HEK293 cells (mouse, UniProt O88516 33-584)
T2 construct: also called 293 mDLL3
T2 sequence: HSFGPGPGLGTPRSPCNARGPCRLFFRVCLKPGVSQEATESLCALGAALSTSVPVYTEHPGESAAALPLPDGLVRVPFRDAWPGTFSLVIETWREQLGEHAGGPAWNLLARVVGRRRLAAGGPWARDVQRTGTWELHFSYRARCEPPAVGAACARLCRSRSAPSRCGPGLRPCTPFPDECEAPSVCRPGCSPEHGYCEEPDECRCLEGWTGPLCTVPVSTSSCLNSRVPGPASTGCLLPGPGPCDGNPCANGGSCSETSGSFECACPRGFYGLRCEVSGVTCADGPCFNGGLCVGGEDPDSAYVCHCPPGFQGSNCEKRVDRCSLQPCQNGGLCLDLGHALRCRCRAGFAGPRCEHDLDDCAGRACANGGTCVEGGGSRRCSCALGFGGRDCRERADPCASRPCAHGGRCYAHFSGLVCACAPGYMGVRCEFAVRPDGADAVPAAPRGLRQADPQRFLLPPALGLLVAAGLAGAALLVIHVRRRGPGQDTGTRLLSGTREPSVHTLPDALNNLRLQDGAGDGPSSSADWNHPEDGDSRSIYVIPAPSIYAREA

T3: full-length human DLL3 on transfected HEK293 cells (human, UniProt Q9NYJ7 27-618)
T3 construct: also called 293 hDLL3
T3 sequence: T1 sequence (looked up)

B1: 10-O18-A (antibody, V domains shown)
VH: QVQLQESGPGLVKPSETLSLTCTVSGGSINSYYWSWIRQPPGKGLEWIGYIFYSGITNYNPSLKSRVTISLDTSKNQFSLKLSSVTAADTAVYYCARIGVAGFYFDYWGQGTLVTVSS
VL: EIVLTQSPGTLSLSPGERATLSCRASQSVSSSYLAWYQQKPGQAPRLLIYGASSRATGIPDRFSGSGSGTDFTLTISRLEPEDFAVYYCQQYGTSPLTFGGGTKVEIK
notes: Hybridoma monoclonal from Ablexis AlivaMAb Kappa mice; captured and detected with anti-mouse Fc / anti-mouse IgG reagents; It is not the recombinant human IgG1 form H10-O18-A; also called 10-O18-A (10 µg/ml)
B2: 2-C8-A (antibody, V domains shown)
VH: EVQLVESGGGLVQPGGSQRLSCAASGFTFSSYWMNWVRQAPGKGLEWVANIKEDGSEKYYVDSVKGRFTISRDNAKNSLYLQMNSLRAEDTAVYYCARDPGWAPFDYWGQGTLVTVSS
VL: DIQMSQSPSSLSASVGDRVTITCRASQGISNYLAWFQQKPGKAPKSLIYAASSLQSGVPSKFSGSGSGTDFTLAISSLQPEDFATYYCQQYNSFPYTFGQGTTLEIK
notes: Hybridoma monoclonal from Ablexis AlivaMAb Kappa mice; captured and detected with anti-mouse Fc / anti-mouse IgG reagents; It is not the recombinant human IgG1 form H2-C8-A; also called 2-C8-A (10 µg/ml)
B3: 7-I1-B (antibody, V domains shown)
VH: EVQLVESGGGLVKPGGSLRLSCAASGFTFSNTWMSWVRQAPGKGLEWVGRIKSKSDGGTTDYAAPVKGRFTISRDDSKNTLYLQMNSLKTEDTAVYYCTQYYWNSFDYWGQGTLVTVSS
VL: not shown
notes: Hybridoma monoclonal from Ablexis AlivaMAb Kappa mice; captured and detected with anti-mouse Fc / anti-mouse IgG reagents; also called 7-I1-B (10 µg/ml)
B4: 6-G23-F (antibody, V domains shown)
VH: QVQLVQSGAEVKKPGASVKVSCKASGYTFTSYYIHWVRQAPGQGLEWMGIIDPSDGSTNYAQKFQGRVTMTRDTSTSTVYMELSSLRSEDTAVYYCARDREYNYYGLDVWGQGTTVTVSS
VL: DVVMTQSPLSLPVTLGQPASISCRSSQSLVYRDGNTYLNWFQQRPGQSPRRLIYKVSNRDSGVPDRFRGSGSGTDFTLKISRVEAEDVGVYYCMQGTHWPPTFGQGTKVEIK
notes: Hybridoma monoclonal from Ablexis AlivaMAb Kappa mice (human immunoglobulin repertoire); the antibody was captured on anti-mouse Fc sensors and detected with anti-mouse IgG / anti-mouse IgG1 reagents; It is not the recombinant human IgG1 form H6-G23-F; also called 6-G23-F (10 µg/ml)

Legend:
[1] = molecular target: T1, endogenous human DLL3 on NCI-H82 cells; experiment: cell-based or functional assay
[2] = molecular target: T1, endogenous human DLL3 on NCI-H82 cells; experiment: flow cytometry, NCI-H82 cells (endogenous DLL3), mAb 10 µg/ml
Protocol: (§1) The four monoclonal antibodies (6-G23-F, 2-C8-A, 7-I1-B and 10-O18-A) were tested for their ability to bind to mouse and cynomolgous DLL3 as well as endogenous human DLL3 by flow cytometry. For this purpose, HEK293 cells were transfected with plasmid DNA encoding full-length human, mouse or cynomolgous DLL3 and used in the experiment. Briefly 106 transfected HEK293 cells or NCI-H82 primary cells were added in FACS buffer PBS 0.5% BSA to the wells of a 96 well U bottom plate and purified monoclonal added to 10 μg/ml. After 30 minutes incubation at 4° C. the cells were washed 3 times in FACS buffer and incubated with a PE labelled F(ab)2 anti-mouse IgG H and L 2nd stage. After another 30 minutes incubation at 4° C. the cells were washed three times in FACS buffer and analyzed on the flow cytometer. Data are presented at the ratio of the Mean Fluorescent Intensity for the monoclonal divided by the background staining with the 2nd stage. As shown in the Table below, all of the monoclonal antibodies cross reacted with cynomolgous DLL3 and detected endogenous DLL3 on NCI H82 cells but only 6-G23-F and 7-I1-B bound to mouse DLL3.

[3] = molecular target: T2, full-length mouse DLL3 on transfected …; experiment: flow cytometry, HEK293 cells transfected with full-length mouse DLL3, mAb 10 µg/ml
Protocol: as §1

[4] = molecular target: T4, full-length cynomolgous DLL3 on transfected HEK293 cells (cynomolgous); experiment: flow cytometry, HEK293 cells transfected with full-length cynomolgous DLL3, mAb 10 µg/ml
T4 construct: whole, on cells; also called 293 cyno DLL3
Protocol: as §1

[5] = molecular target: T3, full-length human DLL3 on transfected …; experiment: flow cytometry, HEK293 cells transfected with full-length human DLL3, mAb 10 µg/ml
Protocol: as §1

[6] = molecular target: T1, endogenous human DLL3 on NCI-H82 cells; experiment: cell-based or functional assay; remark: listed apart in the source
[7] = molecular target: T1, endogenous human DLL3 on NCI-H82 cells; experiment: cell-based or functional assay; remark: listed apart in the source

| Binder | MFI Ratio (4° C. plate / 37° C. plate), 4/37 internalization assay on NCI-H82 cells [1] | ratio of Mean Fluorescent Intensity (monoclonal / background staining with 2nd stage) [2] | ratio of Mean Fluorescent Intensity (monoclonal / background staining with 2nd stage) [3] | ratio of Mean Fluorescent Intensity (monoclonal / background staining with 2nd stage) [4] | ratio of Mean Fluorescent Intensity (monoclonal / background staining with 2nd stage) [5] | FAB ZAP % SC16 Max Killing, NCI-H82 cells [6] [%] | Dy light Dy658 Fluorescence (% of the Control Reference Monoclonal Antibody), quenching internalization assay on NCI-H82 cells [7] [%] |
| --- | --- | --- | --- | --- | --- | --- | --- |
| B1 | 1.56 | 9.4 | 0.99 | 9.85 | 4.74 |  |  |
| B2 | 1.76 | 11.9 | 1.5 | 15 | 7.71 | 89 | 62.9 |
| B3 | 1.68 | 19.2 | 4.7 | 18.7 | 9.74 | 97 | 70.1 |
| B4 | 1.67 | 11.1 | 3.97 | 13.1 | 6.33 | 94 | 76.5 |
